Publication PMC8034621

What was measured:
[1] = biological target: biotinylated 4-heptad RNA polymerase II CTD peptide, Ser5 phosphorylated on all heptads
[2] = biological target: biotinylated 4-heptad RNA polymerase II CTD peptide, Ser2 phosphorylated on all heptads; assay: pull-down on streptavidin-coupled Dynabeads, SDS-PAGE stained with Coomassie Blue, band quantification; details: biotinylated peptides of four CTD heptads; triplicate; parent: est. 1.0; read off a plot
[3] = biological target: biotinylated 4-heptad RNA polymerase II CTD peptide, Ser5 phosphorylated on all heptads; assay: as above; details: biotinylated peptides of four CTD heptads; triplicate; parent: est. 1.0; read off a plot
[4] = biological target: RNA polymerase II CTD CTD (UniProt P24928); details: cited from earlier work
RNA polymerase II CTD CTD, sequence (P24928 1593-1970 A1835T): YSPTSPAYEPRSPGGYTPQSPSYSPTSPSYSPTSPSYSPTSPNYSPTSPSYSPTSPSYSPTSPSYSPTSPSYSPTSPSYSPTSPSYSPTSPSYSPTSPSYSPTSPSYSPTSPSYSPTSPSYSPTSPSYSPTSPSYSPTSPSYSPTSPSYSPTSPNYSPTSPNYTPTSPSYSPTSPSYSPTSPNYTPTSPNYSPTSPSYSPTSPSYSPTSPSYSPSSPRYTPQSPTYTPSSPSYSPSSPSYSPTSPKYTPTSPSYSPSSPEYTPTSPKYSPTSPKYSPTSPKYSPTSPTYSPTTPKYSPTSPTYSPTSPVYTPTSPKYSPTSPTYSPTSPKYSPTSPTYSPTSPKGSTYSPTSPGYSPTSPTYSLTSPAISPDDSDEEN

human capping enzyme (CE/RNGTT) GTase with the disordered flanking regions (211–597), wild-type, O60942 R330A; K331A; R386A; R358A; K403A; R411A, sequence (O60942 211-597 R330A/K331A/R358A/R386A/K403A/R411A): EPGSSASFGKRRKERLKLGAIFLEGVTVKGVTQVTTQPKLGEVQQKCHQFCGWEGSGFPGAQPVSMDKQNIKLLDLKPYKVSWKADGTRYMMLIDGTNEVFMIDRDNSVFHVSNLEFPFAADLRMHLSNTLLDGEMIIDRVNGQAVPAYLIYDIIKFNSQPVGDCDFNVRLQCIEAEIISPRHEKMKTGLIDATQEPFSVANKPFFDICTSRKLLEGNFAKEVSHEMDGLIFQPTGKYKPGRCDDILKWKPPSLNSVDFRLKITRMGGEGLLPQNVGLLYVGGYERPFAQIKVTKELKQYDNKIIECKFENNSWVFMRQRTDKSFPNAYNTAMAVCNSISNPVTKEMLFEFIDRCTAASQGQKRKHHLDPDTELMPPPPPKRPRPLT
human capping enzyme (CE/RNGTT) GTase with the disordered flanking regions (211–597), wild-type, O60942 R330A; K331A; R386A, sequence (O60942 211-597 R330A/K331A/R386A): as the sequence (O60942 211-597 R330A/K331A/R358A/R386A/K403A/R411A) above, with A148R, A193K, A201R counted along it
human capping enzyme (CE/RNGTT) GTase with the disordered flanking regions (211–597), wild-type, O60942 R358A; K403A; R411A, sequence (O60942 211-597 R358A/K403A/R411A): as the sequence (O60942 211-597 R330A/K331A/R358A/R386A/K403A/R411A) above, with A120R, A121K, A176R counted along it
human capping enzyme (CE/RNGTT) GTase with the disordered flanking regions (211–597), wild-type, sequence (O60942 211-597): as the sequence (O60942 211-597 R330A/K331A/R358A/R386A/K403A/R411A) above, with A120R, A121K, A148R, A176R, A193K, A201R counted along it
mRNA capping enzyme GTase, sequence (O60942 229-597): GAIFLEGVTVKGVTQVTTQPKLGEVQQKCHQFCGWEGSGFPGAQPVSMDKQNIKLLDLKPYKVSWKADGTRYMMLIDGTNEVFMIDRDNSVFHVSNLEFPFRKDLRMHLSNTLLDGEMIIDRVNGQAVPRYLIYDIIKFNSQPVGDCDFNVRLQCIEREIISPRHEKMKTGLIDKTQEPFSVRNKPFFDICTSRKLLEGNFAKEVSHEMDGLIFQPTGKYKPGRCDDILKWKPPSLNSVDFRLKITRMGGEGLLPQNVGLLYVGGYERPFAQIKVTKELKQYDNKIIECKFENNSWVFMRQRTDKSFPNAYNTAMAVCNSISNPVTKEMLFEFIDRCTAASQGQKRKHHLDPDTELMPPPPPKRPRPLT

Substance	ratio to parent [2]	ratio to parent [3]	also measured
human CE GTase (211–597) ΔCDS1 (R330A/K331A/R386A) (from UniProt O60942 211-597) (domain or fragment)	–	–	guanylyltransferase activity (32P-GMP bound to the GTase), 0-10 μM 4-heptad pSer5 CTD peptide, relative to basal activity [1]: 1.4 fold
human capping enzyme (CE/RNGTT) GTase with the disordered flanking regions (211–597), wild-type (from UniProt O60942 211-597) (domain or fragment)	–	–	guanylyltransferase activity (32P-GMP bound to the GTase), 0-10 μM 4-heptad pSer5 CTD peptide, relative to basal WT activity [1]: 2.2 fold
human capping enzyme (CE/RNGTT) GTase with the disordered flanking regions (211–597), wild-type, O60942 R330A; K331A; R386A	0.2	0.43	–
human capping enzyme (CE/RNGTT) GTase with the disordered flanking regions (211–597), wild-type, O60942 R330A; K331A; R386A; R358A; K403A; R411A	0.035	0.03	–
human capping enzyme (CE/RNGTT) GTase with the disordered flanking regions (211–597), wild-type, O60942 R358A; K403A; R411A	0.12	0.18	–
mRNA capping enzyme GTase (from UniProt O60942)	–	–	Kd [4]: 139 µM
